Assay results from article PMC4788497 (Methods in molecular biology (Clifton, N.J.), 2014).

Molecular target: the molecule itself
Experiment: SEC

B1: DGCR8 NC1 (amino acid residues 276-751 of human DGCR8), Fe(III) heme-bound dimer (domain or fragment, UniProt Q8WYQ5 276-751, looked up)
chain: DGETSVQPMMTKIKTVLKSRGRPPTEPLPDGWIMTFHNSGVPVYLHRESRVVTWSRPYFLGTGSIRKHDPPLSSIPCLHYKKMKDNEEREQSSDLTPSGDVSPVKPLSRSAELEFPLDEPDSMGADPGPPDEKDPLGAEAAPGALGQVKAKVEVCKDESVDLEEFRSYLEKRFDFEQVTVKKFRTWAERRQFNREMKRKQAESERPILPANQKLITLSVQDAPTKKEFVINPNGKSEVCILHEYMQRVLKVRPVYNFFECENPSEPFGASVTIDGVTYGSGTASSKKLAKNKAARATLEILIPDFVKQTSEEKPKDSEELEYFNHISIEDSRVYELTSKAGLLSPYQILHECLKRNHGMGDTSIKFEVVPGKNQKSEYVMACGKHTVRGWCKNKRVGKQLASQKILQLLHPHVKNWGSLLRMYGRESSKMVKQETSDKSVIELQQYAKKNKPNLHILSKLQEEMKRLAEEREETRK
B1: binds.
